Measured values reported in publication PMC7592150.

Biological target: PCSK9 (UniProt Q8NBP7)
Assay: SPR

UniProt Q8NBP7, sequence (Q8NBP7 31-692): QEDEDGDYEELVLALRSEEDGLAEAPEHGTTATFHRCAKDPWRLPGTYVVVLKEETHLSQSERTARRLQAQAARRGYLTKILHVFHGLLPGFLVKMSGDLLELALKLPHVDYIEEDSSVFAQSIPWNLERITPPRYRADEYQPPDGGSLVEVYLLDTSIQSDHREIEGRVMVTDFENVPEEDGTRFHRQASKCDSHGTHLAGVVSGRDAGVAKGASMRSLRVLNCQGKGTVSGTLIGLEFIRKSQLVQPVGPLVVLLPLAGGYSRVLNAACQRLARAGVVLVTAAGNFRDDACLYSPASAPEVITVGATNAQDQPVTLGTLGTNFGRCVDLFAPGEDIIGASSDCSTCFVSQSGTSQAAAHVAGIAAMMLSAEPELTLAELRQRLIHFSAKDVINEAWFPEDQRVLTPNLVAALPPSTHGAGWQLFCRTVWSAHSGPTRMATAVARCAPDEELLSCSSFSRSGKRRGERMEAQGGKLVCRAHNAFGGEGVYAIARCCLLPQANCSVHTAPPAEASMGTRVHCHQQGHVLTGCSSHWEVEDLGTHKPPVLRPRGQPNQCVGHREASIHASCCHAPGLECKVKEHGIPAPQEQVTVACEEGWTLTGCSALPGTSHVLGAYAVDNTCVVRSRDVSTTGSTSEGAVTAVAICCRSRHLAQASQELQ

Kd: 0.03 nM
Substance: Bococizumab (antibody)
